Three variants from IntAct's records for PubMed 29892012 can be followed below.

B1: Transcription factor RFX3 (Homo sapiens), P48380 (parent)
chain: MQTSETGSDTGSTVTLQTSVASQAAVPTQVVQQVPVQQQVQQVQTVQQVQHVYPAQVQYVEGSDTVYTNGAIRTTTYPYTETQMYSQNTGGNYFDTQGSSAQVTTVVSSHSMVGTGGIQMGVTGGQLISSSGGTYLIGNSMENSGHSVTHTTRASPATIEMAIETLQKSDGLSTHRSSLLNSHLQWLLDNYETAEGVSLPRSTLYNHYLRHCQEHKLDPVNAASFGKLIRSIFMGLRTRRLGTRGNSKYHYYGIRVKPDSPLNRLQEDMQYMAMRQQPMQQKQRYKPMQKVDGVADGFTGSGQQTGTSVEQTVIAQSQHHQQFLDASRALPEFGEVEISSLPDGTTFEDIKSLQSLYREHCEAILDVVVNLQFSLIEKLWQTFWRYSPSTPTDGTTITESSNLSEIESRLPKAKLITLCKHESILKWMCNCDHGMYQALVEILIPDVLRPIPSALTQAIRNFAKSLEGWLSNAMNNIPQRMIQTKVAAVSAFAQTLRRYTSLNHLAQAARAVLQNTSQINQMLSDLNRVDFANVQEQASWVCQCDDNMVQRLETDFKMTLQQQSTLEQWAAWLDNVMMQALKPYEGRPSFPKAARQFLLKWSFYSSMVIRDLTLRSAASFGSFHLIRLLYDEYMFYLVEHRVAQATGETPIAVMGEFGDLNAVSPGNLDKDEGSEVESEMDEELDDSSEPQAKREKTELSQAFPVGCMQPVLETGVQPSLLNPIHSEHIVTSTQTIRQCSATGNTYTAV
partner: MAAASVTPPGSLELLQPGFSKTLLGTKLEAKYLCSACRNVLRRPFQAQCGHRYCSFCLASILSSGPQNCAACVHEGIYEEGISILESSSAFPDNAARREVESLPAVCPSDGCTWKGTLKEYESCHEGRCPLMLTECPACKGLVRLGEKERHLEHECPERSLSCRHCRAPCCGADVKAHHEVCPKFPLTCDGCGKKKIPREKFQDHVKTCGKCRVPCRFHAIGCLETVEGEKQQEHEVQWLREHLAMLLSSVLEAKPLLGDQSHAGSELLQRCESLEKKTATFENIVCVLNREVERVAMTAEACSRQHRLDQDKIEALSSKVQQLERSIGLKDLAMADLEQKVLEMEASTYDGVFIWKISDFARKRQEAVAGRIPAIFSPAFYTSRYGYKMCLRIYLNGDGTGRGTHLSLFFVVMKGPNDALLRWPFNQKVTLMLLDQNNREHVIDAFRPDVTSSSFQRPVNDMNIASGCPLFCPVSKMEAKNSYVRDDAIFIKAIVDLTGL
B2: Cell division cycle-associated 7-like protein (Homo sapiens), Q96GN5 (parent)
chain: MELATRYQIPKEVADIFNAPSDDEEFVGFRDDVPMETLSSEESCDSFDSLESGKQQDVRFHSKYFTEELRRIFIEDTDSETEDFAGFTQSDLNGKTNPEVMVVESDLSDDGKASLVSEEEEDEEEDKATPRRSRSRRSSIGLRVAFQFPTKKLANKPDKNSSSEQLFSSARLQNEKKTILERKKDCRQVIQREDSTSESEDDSRDESQESSDALLKRTMNIKENKAMLAQLLAELNSMPDFFPVRTPTSASRKKTVRRAFSEGQITRRMNPTRSARPPEKFALENFTVSAAKFAEEFYSFRRRKTIGGKCREYRRRHRISSFRPVEDITEEDLENVAITVRDKIYDKVLGNTCHQCRQKTIDTKTVCRNQGCCGVRGQFCGPCLRNRYGEDVRSALLDPDWVCPPCRGICNCSYCRKRDGRCATGILIHLAKFYGYDNVKEYLESLQKELVEDN
partner: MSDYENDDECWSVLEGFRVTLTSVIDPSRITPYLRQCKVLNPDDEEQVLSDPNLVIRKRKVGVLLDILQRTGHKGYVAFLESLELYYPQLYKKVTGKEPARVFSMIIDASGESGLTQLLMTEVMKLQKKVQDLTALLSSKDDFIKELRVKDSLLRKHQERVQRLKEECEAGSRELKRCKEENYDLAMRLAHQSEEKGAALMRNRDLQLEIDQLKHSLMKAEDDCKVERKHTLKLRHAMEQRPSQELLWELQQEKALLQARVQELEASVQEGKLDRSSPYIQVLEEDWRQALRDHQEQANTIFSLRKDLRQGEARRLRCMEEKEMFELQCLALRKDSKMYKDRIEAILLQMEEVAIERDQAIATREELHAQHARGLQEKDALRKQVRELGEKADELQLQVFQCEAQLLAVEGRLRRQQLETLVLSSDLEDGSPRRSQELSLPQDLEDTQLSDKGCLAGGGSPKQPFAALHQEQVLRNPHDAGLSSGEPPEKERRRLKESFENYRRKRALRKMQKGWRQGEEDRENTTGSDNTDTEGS
B3: Islet cell autoantigen 1 (Homo sapiens), Q05084 (parent)
chain: MSGHKCSYPWDLQDRYAQDKSVVNKMQQKYWETKQAFIKATGKKEDEHVVASDADLDAKLELFHSIQRTCLDLSKAIVLYQKRICFLSQEENELGKFLRSQGFQDKTRAGKMMQATGKALCFSSQQRLALRNPLCRFHQEVETFRHRAISDTWLTVNRMEQCRTEYRGALLWMKDVSQELDPDLYKQMEKFRKVQTQVRLAKKNFDKLKMDVCQKVDLLGASRCNLLSHMLATYQTTLLHFWEKTSHTMAAIHESFKGYQPYEFTTLKSLQDPMKKLVEKEEKKKINQQESTDAAVQEPSQLISLEEENQRKESSSFKTEDGKSILSALDKGSTHTACSGPIDELLDMKSEEGACLGPVAGTPEPEGADKDDLLLLSEIFNASSLEEGEFSKEWAAVFGDGQVKEPVPTMALGEPDPKAQTGSGFLPSQLLDQNMKDLQASLQEPAKAASDLTAWFSLFADLDPLSNPDAVGKTDKEHELLNA

The variants in one assay derive from B1. The settings on record: with traf2_human TRAF2, Q12933.
S387C: the “effect of a mutation on the interaction” value is listed as “with no effect”.

The variants in the next assay derive from B2. Particulars: with card9_human CARD9, Q9H257.
MELATRYQIPKEVADIFNAPSDDEEFVGFRDDVPMETLSSEESCDSFDSLESGKQQDVRFHSKYFTEELRRIFIEDTDSETEDFAGFTQSDLNGKTNPEVMVVESDLSDDGKASLVSEEEEDEEEDKATPRRSRSRRSSIGLRVAFQFPTKKLANKPDKNSSSEQLFSSARLQNEKKTILERKKDCRQVIQREDSTSESEDDSRDESQESSDALLKRTMNIKENKAMLAQLLAELNSMPDFFPVRTPTSASRKKTVRRAFSEGQITRHMNPTRSARPPEKFALENFTVSAAKFAEEFYSFRRRKTIGGKCREYRRRHRISSFRPVEDITEEDLENVAITVRDKIYDKVLGNTCHQCRQKTIDTKTVCRNQGCCGVRGQFCGPCLRNRYGEDVRSALLDPDWVCPPCRGICNCSYCRKRDGRCATGILIHLAKFYGYDNVKEYLESLQKELVEDN [R268H]: the “effect of a mutation on the interaction” value was “with no effect”.

The next assay covers variants of B3. The settings on record: with rab2a_human RAB2A.
For MSGHKCSYPWDLQDRYAQDKSVVNKMQQKYWETKQAFIKATGKKEDEHVVASDADLDAKLELFHSIQRTCLDLSKAIVLYQKRICFLSQEENELGKFLRSQGFQDKTRAGKMMQATGKALCFSSQQRLALRNPLCRFHQEVETFRHRAISDTWLTVNRMEQCRTEYRGALLWMKDVSQELDPDLYKQMEKFRKVQTQVRLAKKNFDKLKMDVCQKVDLLGASRCNLLSHMLATYQTTLLHFWEKTSHTMAAIHESFKGYQPYEFTTLKSLQDPMKKLVEKEEKKKINQQESTDAAVQEPSQLISLEEENQRKESSSFKTEDGKSILSALDKGSTHTACSGPIDELLDMKSEEGACLGPVAGTPEPEGADKDDLLLLSEIFNASSLEEGEFSKEWAAVFGDGQVKEPVPTMALGEPDPKAQTGSGFLPSQLLDQNMKDLQASLREPAKAASDLTAWFSLFADLDPLSNPDAVGKTDKEHELLNA [Q443R], the “effect of a mutation on the interaction” value is recorded as “disrupting interaction strength”.

The variants in another assay derive from B3. The settings on record: with rab2b_human RAB2B.
As to MSGHKCSYPWDLQDRYAQDKSVVNKMQQKYWETKQAFIKATGKKEDEHVVASDADLDAKLELFHSIQRTCLDLSKAIVLYQKRICFLSQEENELGKFLRSQGFQDKTRAGKMMQATGKALCFSSQQRLALRNPLCRFHQEVETFRHRAISDTWLTVNRMEQCRTEYRGALLWMKDVSQELDPDLYKQMEKFRKVQTQVRLAKKNFDKLKMDVCQKVDLLGASRCNLLSHMLATYQTTLLHFWEKTSHTMAAIHESFKGYQPYEFTTLKSLQDPMKKLVEKEEKKKINQQESTDAAVQEPSQLISLEEENQRKESSSFKTEDGKSILSALDKGSTHTACSGPIDELLDMKSEEGACLGPVAGTPEPEGADKDDLLLLSEIFNASSLEEGEFSKEWAAVFGDGQVKEPVPTMALGEPDPKAQTGSGFLPSQLLDQNMKDLQASLREPAKAASDLTAWFSLFADLDPLSNPDAVGKTDKEHELLNA [Q443R], the “effect of a mutation on the interaction” value is given as “disrupting interaction strength”.
